The record followed here is US20020091083, “DNA-binding protein YB-1-containing collagen accumulation inhibitors” (Sumitomo Chemical Company, Ltd., published 2002).

Numbering of substitutions follows the chain as printed.

The target of this series is YB-1 (DNA-binding protein) (Homo sapiens, UniProt P67809 SEQ:1-317). Briefly: EMSA; 200 ng protein, 1 ug poly dI-dC, on ice 30 min. The settings on record: tags: His tag (pET-28a(+), Ni-NTA purified from E. coli BL21-GOLD(DE3)); label: 32P 5' end. How it is done: An oligonucleotide consisting of the nucleotide sequence represented by SEQ ID No:.3 was mixed with an oligonucleotide consisting of the nucleotide sequence complementary with its nucleotide sequence, and this oligonucleotide mixture was boiled for 5 minutes and then allowed to stand at room temperature. Then this oligonucleotide mixture in an amount corresponding to 10 pmol DNA, 2 μl of a T4 kinase buffer, 1 μl of T4 kinase and 6 μl of γ-³²P-ATP(>3000 Ci/mmol, DAIICHI KAGAKU YAKUHIN, Catalog No.NEG-502A) were mixed with distilled water to make the total volume 20 μl, which was then kept at 37° C. for 1 hour. This mixture was loaded onto Quick Spin Column G-25 (Boehringer, Catalog No.1273949). This column was centrifuged (2,500 rpm, 5 minutes), and the effluent was recovered. The effluent thus recovered was subjected to a 10% polyacrylamide gel electrophoresis to recover a gel portion containing a ³²P-labelled double-stranded DNA. the gel portion thus recovered was combined with distilled water, kept at 37° C. over one whole day and night, and extracted to obtain the ³²P-labelled DNA (hereinafter referred to as the binding probe). Thus the binding probe was prepared. […]
Sequence of YB-1 (DNA-binding protein) (P67809 other isoform, or with tags, fused parts or gaps): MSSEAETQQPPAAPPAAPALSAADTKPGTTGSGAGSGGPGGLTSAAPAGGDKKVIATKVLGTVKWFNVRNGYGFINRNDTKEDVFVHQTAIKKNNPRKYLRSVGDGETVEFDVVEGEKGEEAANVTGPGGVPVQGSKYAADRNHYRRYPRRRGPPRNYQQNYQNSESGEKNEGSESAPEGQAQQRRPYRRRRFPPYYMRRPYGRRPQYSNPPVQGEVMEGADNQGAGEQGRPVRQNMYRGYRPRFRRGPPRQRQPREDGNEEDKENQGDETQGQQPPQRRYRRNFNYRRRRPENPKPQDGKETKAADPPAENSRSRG

B1: COL1A2 promoter binding probe (dsDNA)
DNA 1: CCCCCCATTCGCTCCCTCCTCTGCGCCCCCGCAGGCTC
DNA 2: GAGCCTGCGGGGGCGCAGAGGAGGGAGCGAATGGGGGG
Consider B1, for which the binding result is recorded as “binds”.

B2: COL1A2 promoter non-binding probe (dsDNA)
DNA 1: B1 DNA 1 with C5G, C6G
DNA 2: B1 DNA 2 with G33C, G34C
Take B2: the binding result was “no binding”.
